Tests used:
[1] = biological target: T1, human Jagged-1 DSL-EGF3 fragment (J-1_(DSL-EGF3)), His-tagged, wild type (human, UniProt P78504 187-335); assay: pull-down
[2] = biological target: T1, human Jagged-1 DSL-EGF3 fragment …; assay: SPR

T1 sequence (P78504 187-335): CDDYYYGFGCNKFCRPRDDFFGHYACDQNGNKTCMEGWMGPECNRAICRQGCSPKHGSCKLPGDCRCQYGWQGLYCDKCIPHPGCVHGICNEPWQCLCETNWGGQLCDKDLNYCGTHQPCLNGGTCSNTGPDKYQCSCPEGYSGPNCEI

| binding result [1] | binding result [2] | Binder |
| --- | --- | --- |
| binds |  | human Notch-1 EGF domains 11-13 (N-1_(11-13)) with C-terminal BirA-tag, biotinylated (domain or fragment, biotin on the C-terminal tag) QDVDECSLGANPCEHAGKCINTLGSFECQCLQGYTGPRCEIDVNECVSNPCQNDATCLDQIGEFQCICMPGYEGVHCEVNTDECASSPCLHNGRCLDKINEFQCECPTGFTGHLCQ |
|  | binds | human Notch-1 EGF domains 11-13 (N-1_(11-13)) without the BirA-tag (domain or fragment) QDVDECSLGANPCEHAGKCINTLGSFECQCLQGYTGPRCEIDVNECVSNPCQNDATCLDQIGEFQCICMPGYEGVHCEVNTDECASSPCLHNGRCLDKINEFQCECPTGFTGHLCQ |

From PMC2669539 (Nature structural & molecular biology, 2008)
